Our source for the proximity ligation assay signal, fold increase in MDA ER-G2 against wild-type MDA cells values is US20220363738A1.

For the assay, the target named is T1, Calnexin (Cnx) on the surface of human cells (MDA-MB-231 ER-G2, Huh7, KP4) (human), P27824.
T1 chain: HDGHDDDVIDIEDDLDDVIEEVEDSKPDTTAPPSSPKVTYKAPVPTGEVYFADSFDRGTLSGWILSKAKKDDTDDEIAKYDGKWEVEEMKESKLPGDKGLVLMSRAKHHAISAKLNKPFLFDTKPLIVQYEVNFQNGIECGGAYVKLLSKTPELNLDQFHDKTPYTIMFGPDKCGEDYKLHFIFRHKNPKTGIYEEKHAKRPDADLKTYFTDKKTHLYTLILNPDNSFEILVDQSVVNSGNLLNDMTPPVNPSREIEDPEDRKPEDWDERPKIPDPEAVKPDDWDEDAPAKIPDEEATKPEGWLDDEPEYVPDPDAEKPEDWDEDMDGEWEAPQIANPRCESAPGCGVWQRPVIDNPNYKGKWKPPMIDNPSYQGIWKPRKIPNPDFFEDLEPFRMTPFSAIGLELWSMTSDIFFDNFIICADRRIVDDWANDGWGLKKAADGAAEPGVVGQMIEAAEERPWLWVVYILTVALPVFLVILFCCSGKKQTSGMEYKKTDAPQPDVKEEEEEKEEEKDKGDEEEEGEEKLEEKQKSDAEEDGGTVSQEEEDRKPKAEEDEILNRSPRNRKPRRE
In words: proximity ligation assay on live, intact cells, probes for Cnx and ERp57. To be noted: remark: other sources report otherwise.

B1: ERp57 (PDIA3) on the surface of human MDA-MB-231 ER-G2 cells, P30101 25-505 (enzyme, UniProt P30101 25-505, looked up)
chain: SDVLELTDDNFESRISDTGSAGLMLVEFFAPWCGHCKRLAPEYEAAATRLKGIVPLAKVDCTANTNTCNKYGVSGYPTLKIFRDGEEAGAYDGPRTADGIVSHLKKQAGPASVPLRTEEEFKKFISDKDASIVGFFDDSFSEAHSEFLKAASNLRDNYRFAHTNVESLVNEYDDNGEGIILFRPSHLTNKFEDKTVAYTEQKMTSGKIKKFIQENIFGICPHMTEDNKDLIQGKDLLIAYYDVDYEKNAKGSNYWRNRVMMVAKKFLDAGHKLNFAVASRKTFSHELSDFGLESTAGEIPVVAIRTAKGEKFVMQEEFSRDGKALERFLQDYFDGNLKRYLKSEPIPESNDGPVKVVVAENFDEIVNNENKDVLIEFYAPWCGHCKNLEPKYKELGEKLSKDPNIVIAKMDATANDVPSPYEVRGFPTIYFSPANKKLNPKKYEGGRELSDFISYLQREATNPPVIQEEKPKKKKKAQEDL
modifications: here or on the partner: O-GalNAc (Tn) glycosylation at T50, T59, T66, T79, S81 and S86 after GALA activation
B1 returned a proximity ligation assay signal, fold increase in MDA ER-G2 against wild-type MDA cells of 10 fold.
